Series [1] concerns the molecule itself. The series is described as follows: SEC + other: negative-stain electron microscopy.
Series [2] deals with the molecule itself. The series is described as follows: negative-stain electron microscopy; Talon eluate (TBS, 140 mM imidazole) of recombinant His-tagged protein applied at once to carbon grids, 2% uranyl acetate.

B1: bifunctional acetaldehyde-alcohol dehydrogenase AdhE (Streptococcus pneumoniae), native spirosomes (enzyme)
chain: MKAMEENMADKKTVTPEEKKLVAEKHVDELVQKALVALEEMRKLNQEQVDYIVAKASVAALDAHGELALHAFEETGRGVFEDKATKNLFACEHVVNNMRHTKTVGVIEEDDVTGLTLIAEPVGVVCGITPTTNPTSTAIFKSLISLKTRNPIVFAFHPSAQESSAHAARIVRDAAIAAGAPENCVQWITQPSMEATSALMNHEGVATILATGGNAMVKAAYSCGKPALGVGAGNVPAYVEKSANIRQAAHDIVMSKSFDNGMVCASEQAVIIDKEIYDEFVAEFKSYHTYFVNKKEKALLEEFCFGVKANSKNCAGAKLNADIVGKPATWIAEQAGFTVPEGTNILAAECKEVGENEPLTREKLSPVIAVLKSESREDGITKARQMVEFNGLGHSAAIHTADEELTKEFGKAVKAIRVICNSPSTFGGIGDVYNAFLPSLTLGCGSYGRNSVGDNVSAINLLNIKKVGRRRNNMQWMKLPSKTYFERDSIQYLQKCRDVERVMIVTDHAMVELGFLDRIIEQLDLRRNKVVYQIFADVEPDPDITTVNRGTEIMRAFKPDTIIALGGGSPMDAAKVMWLFYEQPEVDFRDLVQKFMDIRKRAFKFPLLGKKTKFIAIPTTSGTGSEVTPFAVISDKANNRKYPIADYSLTPTVAIVDPALVLTVPGFVAADTGMDVLTHATEAYVSQMASDYTDGLALQAIKLVFENLESSVKNADFHSREKMHNASTIAGMAFANAFLGISHSMAHKIGAQFHTIHGRTNAILLPYVIRYNGTRPAKTATWPKYNYYRADEKYQDIARMLGLPASTPEEGVESYAKAVYELGERIGIQMNFRDQGIDEKEWKEHSRELAFLAYEDQCSPANPRLPMVDHMQEIIEDAYYGYKERPGRRK
notes: also called spirosin; 'plaited' filaments
Take B1: the binding result in series [1] is recorded as “binds”.

B2: AdhE^S.pneumoniae, C-terminally hexahistidine-tagged, expressed in E. coli (enzyme)
chain: MKAMEENMADKKTVTPEEKKLVAEKHVDELVQKALVALEEMRKLNQEQVDYIVAKASVAALDAHGELALHAFEETGRGVFEDKATKNLFACEHVVNNMRHTKTVGVIEEDDVTGLTLIAEPVGVVCGITPTTNPTSTAIFKSLISLKTRNPIVFAFHPSAQESSAHAARIVRDAAIAAGAPENCVQWITQPSMEATSALMNHEGVATILATGGNAMVKAAYSCGKPALGVGAGNVPAYVEKSANIRQAAHDIVMSKSFDNGMVCASEQAVIIDKEIYDEFVAEFKSYHTYFVNKKEKALLEEFCFGVKANSKNCAGAKLNADIVGKPATWIAEQAGFTVPEGTNILAAECKEVGENEPLTREKLSPVIAVLKSESREDGITKARQMVEFNGLGHSAAIHTADEELTKEFGKAVKAIRVICNSPSTFGGIGDVYNAFLPSLTLGCGSYGRNSVGDNVSAINLLNIKKVGRRRNNMQWMKLPSKTYFERDSIQYLQKCRDVERVMIVTDHAMVELGFLDRIIEQLDLRRNKVVYQIFADVEPDPDITTVNRGTEIMRAFKPDTIIALGGGSPMDAAKVMWLFYEQPEVDFRDLVQKFMDIRKRAFKFPLLGKKTKFIAIPTTSGTGSEVTPFAVISDKANNRKYPIADYSLTPTVAIVDPALVLTVPGFVAADTGMDVLTHATEAYVSQMASDYTDGLALQAIKLVFENLESSVKNADFHSREKMHNASTIAGMAFANAFLGISHSMAHKIGAQFHTIHGRTNAILLPYVIRYNGTRPAKTATWPKYNYYRADEKYQDIARMLGLPASTPEEGVESYAKAVYELGERIGIQMNFRDQGIDEKEWKEHSRELAFLAYEDQCSPANPRLPMVDHMQEIIEDAYYGYKERPGRRK
notes: not shown: His6, C-terminal, kept
As for B2, the binding result in series [2] was “binds”.

(Values after article PMC4398557, “Conserved Streptococcus pneumoniae Spirosomes Suggest a Single Type of Transformation Pilus in Competence” (PLoS Pathogens, 2015).)
